The record followed here is PMC3023130.

Where only a bound is given, the exact number is not on record here.

This assay has as its target DQ1-MBP85-99 complex, monobiotinylated (SPR). Briefly: SPR. In general terms: SPR reads the build-up and loss of mass on a sensor chip optically.
Regarding “Hy.1B11 TCR double mutant CDR1α N31A and CDR2α S52A”, the Kd (commonly the concentration at which binding is half-saturated) came out at 13.8 µM.
Under Hy.1B11 TCR mutant CDR2β Q48A stands 108 µM; under Hy.1B11 TCR mutant CDR3α E98A, over 250 µM; under Hy.1B11 TCR mutant CDR3α F95A, over 250 µM.
In turn, “Hy.1B11 TCR, soluble monomeric wild type” showed a Kd of 14.3 µM.
